Test results as given in patent US20150344570A1 (published 2015).

T1: FcγRIIa R (human, UniProt P12318 34-217)
T1 construct: extracellular domain; Soluble His-tagged extracellular domain expressed in FreeStyle293 cells; analyte in Biacore; also called FcgRIIa R; FcgRIIaR; not shown: His tag attached to the C terminus
T1 sequence (looked up): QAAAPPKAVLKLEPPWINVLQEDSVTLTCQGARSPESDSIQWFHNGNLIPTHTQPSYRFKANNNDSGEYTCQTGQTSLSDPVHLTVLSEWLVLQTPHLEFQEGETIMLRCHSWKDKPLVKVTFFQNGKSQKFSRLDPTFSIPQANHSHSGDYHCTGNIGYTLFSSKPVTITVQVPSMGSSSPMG

T2: FcγRIIb (human, UniProt P31994 43-217)
T2 construct: extracellular domain; Soluble His-tagged extracellular domain expressed in FreeStyle293 cells; analyte in Biacore; also called FcgRIIb; 2b; not shown: His tag attached to the C terminus
T2 sequence (looked up): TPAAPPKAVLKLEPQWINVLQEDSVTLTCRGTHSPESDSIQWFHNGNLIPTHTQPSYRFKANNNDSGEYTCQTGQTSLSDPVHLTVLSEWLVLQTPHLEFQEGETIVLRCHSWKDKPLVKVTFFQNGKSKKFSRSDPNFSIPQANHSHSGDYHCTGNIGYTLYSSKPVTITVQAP

T3: FcγRIIb (human, UniProt P31994 43-217)
T3 construct: extracellular domain; also called FcgRIIb; 2b
T3 sequence (looked up): T2 sequence (looked up)

B1: GpH7-A5/GpH7-B3 variant P329_14T/GpL16-k0 (antibody, human IgG1, kappa)
heavy 1: not shown
heavy 2: not shown
light: DIVMTQSPLSLPVTPGEPASISCQASESLVHSNRNTYLHWYLQKPGQSPQLLIYKVSNRFSGVPDRFSGSGSGTDFTLKISRVEAEDVGVYYCSQNTHVPPTFGQGTKVEIERTVAAPSVFIFPPSDEQLKSGTASVVCLLNNFYPREAKVQWKVDNALQSGNSQESVTEQDSKDSTYSLSSTLTLSKADYEKHKVYACEVTHQGLSSPVTKSFNRGEC
notes: Heterodimerized anti-glypican-3 IgG1 antibody; alteration only in the GpH7-B3 H chain; position in EU numbering; also called He Ab
B2: GpH7-A5/GpH7-B3 variant V266_01G/GpL16-k0 (antibody, human IgG1, kappa)
heavy 1: not shown
heavy 2: not shown
light: B1 light
notes: mutation in the GpH7-B3 chain only; also called He Ab
B3: GpH7-A5/GpH7-B3 variant S298_19Q/GpL16-k0 (antibody, human IgG1, kappa)
heavy 1: not shown
heavy 2: not shown
light: B1 light
notes: as for B1
B4: GpH7-A5/GpH7-B3 variant P329_18N/GpL16-k0 (antibody, human IgG1, kappa)
heavy 1: not shown
heavy 2: not shown
light: B1 light
notes: as for B1
B5: GpH7-A5/GpH7-B3 variant S298_16H/GpL16-k0 (antibody, human IgG1, kappa)
heavy 1: not shown
heavy 2: not shown
light: B1 light
notes: as for B1
B6: GpH7-A5/GpH7-B3 variant D265_03V/GpL16-k0 (antibody, human IgG1, kappa)
heavy 1: not shown
heavy 2: not shown
light: B1 light
notes: as for B2
B7: GpH7-A5/GpH7-B3 variant S298_15Y/GpL16-k0 (antibody, human IgG1, kappa)
heavy 1: not shown
heavy 2: not shown
light: B1 light
notes: as for B1
B8: GpH7-A5/GpH7-B3 variant P329_19Q/GpL16-k0 (antibody, human IgG1, kappa)
heavy 1: not shown
heavy 2: not shown
light: B1 light
notes: as for B1
B9: GpH7-A5/GpH7-B3 variant D265_16H/GpL16-k0 (antibody, human IgG1, kappa)
heavy 1: not shown
heavy 2: not shown
light: B1 light
notes: as for B2
B10: GpH7-A5/GpH7-B3 variant D265_18N/GpL16-k0 (antibody, human IgG1, kappa)
heavy 1: not shown
heavy 2: not shown
light: B1 light
notes: as for B2
B11: GpH7-A5/GpH7-B3 variant D265_10E/GpL16-k0 (antibody, human IgG1, kappa)
heavy 1: not shown
heavy 2: not shown
light: B1 light
notes: as for B2
B12: GpH7-A5/GpH7-B3 variant S298_14T/GpL16-k0 (antibody, human IgG1, kappa)
heavy 1: not shown
heavy 2: not shown
light: B1 light
notes: as for B1
B13: GpH7-A5/GpH7-B3 variant P331_01G/GpL16-k0 (antibody, human IgG1, kappa)
heavy 1: not shown
heavy 2: not shown
light: B1 light
notes: as for B1
B14: GpH7-A5/GpH7-B3 variant D265_08L/GpL16-k0 (antibody, human IgG1, kappa)
heavy 1: not shown
heavy 2: not shown
light: B1 light
notes: as for B2
B15: GpH7-A5/GpH7-B3 variant D265_14T/GpL16-k0 (antibody, human IgG1, kappa)
heavy 1: not shown
heavy 2: not shown
light: B1 light
notes: as for B2

Key:
[1] = biological target: T1, FcγRIIa R; assay: SPR (Biacore), antibody captured via antigen peptide, FcγR as analyte
Experimental: (§1) The heterodimerized antibodies He Abs in which one of the H chains was introduced with an alteration were assayed for their binding activities to each activating FcγR and inhibitory FcγR according to the method described in Example 4. […] The activating FcγRs in FIGS. 26, 27, 28, and 29 are FcγRIa, FcγRIIa (R), FcγRIIa (H), and FcγRIIIa, respectively.
(§2) Analysis of interaction between objective antibody and the FcγR was carried out using Biacore T100 (GE Healthcare). HBS-EP+ (GE Healthcare) was used as the running buffer, and the measurement temperature was set to 25° C. Chips produced by immobilizing the antigen peptide by the amine coupling method to a Series S Sencor Chip CM5 (GE Healthcare), or alternatively, chips produced by allowing preliminarily biotinylated antigen peptides to interact with and immobilize onto a Series S Sensor Chip SA (certified) (GE Healthcare) were used. Antibodies of interest were captured onto an antigen peptide-immobilized chip, and allowed to interact to each FcγR diluted with running buffer. To regenerate and repeatedly use the chip, the antibodies captured on the chip were washed off by reacting 10 mM glycine-HCl, pH 1.5.

[2] = biological target: T2, FcγRIIb; assay: as above
Experimental: as §1, §2

[3] = biological target: T1, FcγRIIa R; assay: ratio of He/Con_2aR to He/Con_2b (binding to FcγRIIb as reference); SPR
[4] = biological target: T4, FcγRIIIa (human, UniProt P08637 17-208); assay: SPR; He/Con_3a divided by He/Con_2b (FcγRIIIa against FcγRIIb)
T4 construct: extracellular domain; also called FcgRIIIa; 3a

[5] = biological target: T3, FcγRIIb; assay: SPR (Biacore), relative binding
[6] = biological target: T4, FcγRIIIa; assay: SPR (Biacore), relative binding

T4 sequence (P08637 17-208): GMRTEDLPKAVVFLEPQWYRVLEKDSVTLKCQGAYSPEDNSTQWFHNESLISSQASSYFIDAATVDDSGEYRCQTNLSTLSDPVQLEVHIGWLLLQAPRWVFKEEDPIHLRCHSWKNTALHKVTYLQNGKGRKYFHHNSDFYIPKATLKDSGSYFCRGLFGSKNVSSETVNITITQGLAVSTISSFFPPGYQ

Binder	He/Con_2aR (IIaR binding relative to GpH7-A5/GpH7-B3/GpL16-k0) [1]	He/Con_2b (IIb binding relative to GpH7-A5/GpH7-B3/GpL16-k0) [2]	He_2aR/2b (IIaR/IIb) [3]	He_3a/2b (IIIa/IIb) [4]	He/Con_2b [5]	He/Con_3a [6]
B1	57.3 % of control (control = 100)	37.9 % of control (control = 100)	1.51	–	–	–
B2	–	–	–	0.47 ratio	51.5 % of GpH7-A5/GpH7-B3/GpL16-k0	24 % of GpH7-A5/GpH7-B3/GpL16-k0
B3	95 % of control (control = 100)	73.3 % of control (control = 100)	1.3	–	–	–
B4	61.2 % of control (control = 100)	40.4 % of control (control = 100)	1.51	–	–	–
B5	88.5 % of control (control = 100)	63.5 % of control (control = 100)	1.39	–	–	–
B6	–	–	–	0.19 ratio	3.2 % of GpH7-A5/GpH7-B3/GpL16-k0	0.6 % of GpH7-A5/GpH7-B3/GpL16-k0
B7	79.1 % of control (control = 100)	61.4 % of control (control = 100)	1.29	–	–	–
B8	41.1 % of control (control = 100)	30.7 % of control (control = 100)	1.34	–	–	–
B9	–	–	–	0.35 ratio	38.3 % of GpH7-A5/GpH7-B3/GpL16-k0	13.6 % of GpH7-A5/GpH7-B3/GpL16-k0
B10	–	–	–	0.74 ratio	6.1 % of GpH7-A5/GpH7-B3/GpL16-k0	4.6 % of GpH7-A5/GpH7-B3/GpL16-k0
B11	–	–	–	0.53 ratio	38.2 % of GpH7-A5/GpH7-B3/GpL16-k0	20.1 % of GpH7-A5/GpH7-B3/GpL16-k0
B12	98.5 % of control (control = 100)	77.9 % of control (control = 100)	1.26	–	–	–
B13	61 % of control (control = 100)	45.4 % of control (control = 100)	1.34	–	–	–
B14	–	–	–	0 ratio	4.6 % of GpH7-A5/GpH7-B3/GpL16-k0	0 % of GpH7-A5/GpH7-B3/GpL16-k0
B15	–	–	–	0.27 ratio	16 % of GpH7-A5/GpH7-B3/GpL16-k0	4.3 % of GpH7-A5/GpH7-B3/GpL16-k0
